The text below walks through data of US20120052069A1 (Amgen, published 2012).

The experiment deals with β-Klotho overexpressed in recombinant human 293T kidney cells. In words: cell-based or functional assay.

B1: human FGF21 (wild-type mature FGF21) (ligand)
chain: HPIPDSSPLLQFGGQVRQRYLYTDDAQQTEAHLEIREDGTVGGAADQSPESLLQLKALKPGVIQILGVKTSRFLCQRPDGALYGSLHFDPEACSFRELLLEDGYNVYQSEAHGLPLHLPGNKSPHRDPAPRGPARFLPLPGLPPAPPEPPGILAPQPPDVGSSDPLSMVGPSQGRSPSYAS
Regarding B1, the “EC50 (nM), ELK luciferase assay” value amounted to 0.4 nM and the “Efficacy, ELK luciferase assay” value was found to be 100%.
